The IC50 is the concentration that inhibits the measured activity by half.

Like-named read-outs stand apart in the source and are kept apart here.

The record followed here is patent US20170174733A1.

For experiment [1], the target named is LRP6 on HEK293S cells (human) (UniProt O75581). Kind of experiment: cell-based or functional assay.
For experiment [2], the target named is biotinylated VEGF165 (UniProt P15692). The experiment is described as follows: competition binding ELISA: biotinylated VEGF165 premixed with the binder, then on coated VEGFR1-Fc (blocked partner), OD 450 nm. In general terms: In an ELISA, binding on a coated surface is turned into a signal by an enzyme label.
Chain of biotinylated VEGF165 (P15692 other isoform, or with tags, fused parts or gaps limits assumed): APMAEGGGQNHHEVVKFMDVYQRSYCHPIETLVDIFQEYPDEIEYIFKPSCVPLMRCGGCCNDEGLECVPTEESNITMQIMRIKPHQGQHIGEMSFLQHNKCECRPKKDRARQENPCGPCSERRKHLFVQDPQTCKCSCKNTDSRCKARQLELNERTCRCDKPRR
For experiment [3] the target is unchanged. Kind of experiment: competition binding ELISA: blocks biotinylated VEGF165 binding to coated VEGFR1-Fc.
The target of experiment [4] is mouse VEGF (mouse) (UniProt Q00731). The experiment is described as follows: cell-based or functional assay.
Chain of mouse VEGF (mouse) (Q00731 other isoform, or with tags, fused parts or gaps limits assumed): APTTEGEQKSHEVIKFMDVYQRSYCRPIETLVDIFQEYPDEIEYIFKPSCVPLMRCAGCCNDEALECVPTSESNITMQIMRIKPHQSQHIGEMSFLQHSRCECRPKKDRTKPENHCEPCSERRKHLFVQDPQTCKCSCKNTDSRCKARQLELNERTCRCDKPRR
Experiment [5] addresses rat VEGF (rat) (UniProt P16612). Kind of experiment: cell-based or functional assay.
Experiment [6] has as its target human VEGF (human) (UniProt P15692). The experiment is described as follows: cell-based or functional assay.
Experiment [7] has as its target mouse VEGF (mouse) (UniProt Q00731). The experiment is described as follows: cell-based or functional assay. The source holds these as a separate data set.
Experiment [8] deals with rat VEGF (rat) (UniProt P16612). Kind of experiment: cell-based or functional assay. This is another data set of the same source.
Chain of rat VEGF (rat) (P16612 other isoform, or with tags, fused parts or gaps limits assumed): as the sequence (Q00731 other isoform, or with tags, fused parts or gaps limits assumed) above, with S10A, I14V, I75V counted along it
Experiment [9] concerns the target human VEGF (human) (UniProt P15692). Kind of experiment: cell-based or functional assay. The source holds these as a separate data set.

Chain of human VEGF (human) (P15692 other isoform, or with tags, fused parts or gaps limits assumed): as the sequence (P15692 other isoform, or with tags, fused parts or gaps limits assumed) above
Chain of LRP6 on HEK293S cells (human) (O75581 20-1613): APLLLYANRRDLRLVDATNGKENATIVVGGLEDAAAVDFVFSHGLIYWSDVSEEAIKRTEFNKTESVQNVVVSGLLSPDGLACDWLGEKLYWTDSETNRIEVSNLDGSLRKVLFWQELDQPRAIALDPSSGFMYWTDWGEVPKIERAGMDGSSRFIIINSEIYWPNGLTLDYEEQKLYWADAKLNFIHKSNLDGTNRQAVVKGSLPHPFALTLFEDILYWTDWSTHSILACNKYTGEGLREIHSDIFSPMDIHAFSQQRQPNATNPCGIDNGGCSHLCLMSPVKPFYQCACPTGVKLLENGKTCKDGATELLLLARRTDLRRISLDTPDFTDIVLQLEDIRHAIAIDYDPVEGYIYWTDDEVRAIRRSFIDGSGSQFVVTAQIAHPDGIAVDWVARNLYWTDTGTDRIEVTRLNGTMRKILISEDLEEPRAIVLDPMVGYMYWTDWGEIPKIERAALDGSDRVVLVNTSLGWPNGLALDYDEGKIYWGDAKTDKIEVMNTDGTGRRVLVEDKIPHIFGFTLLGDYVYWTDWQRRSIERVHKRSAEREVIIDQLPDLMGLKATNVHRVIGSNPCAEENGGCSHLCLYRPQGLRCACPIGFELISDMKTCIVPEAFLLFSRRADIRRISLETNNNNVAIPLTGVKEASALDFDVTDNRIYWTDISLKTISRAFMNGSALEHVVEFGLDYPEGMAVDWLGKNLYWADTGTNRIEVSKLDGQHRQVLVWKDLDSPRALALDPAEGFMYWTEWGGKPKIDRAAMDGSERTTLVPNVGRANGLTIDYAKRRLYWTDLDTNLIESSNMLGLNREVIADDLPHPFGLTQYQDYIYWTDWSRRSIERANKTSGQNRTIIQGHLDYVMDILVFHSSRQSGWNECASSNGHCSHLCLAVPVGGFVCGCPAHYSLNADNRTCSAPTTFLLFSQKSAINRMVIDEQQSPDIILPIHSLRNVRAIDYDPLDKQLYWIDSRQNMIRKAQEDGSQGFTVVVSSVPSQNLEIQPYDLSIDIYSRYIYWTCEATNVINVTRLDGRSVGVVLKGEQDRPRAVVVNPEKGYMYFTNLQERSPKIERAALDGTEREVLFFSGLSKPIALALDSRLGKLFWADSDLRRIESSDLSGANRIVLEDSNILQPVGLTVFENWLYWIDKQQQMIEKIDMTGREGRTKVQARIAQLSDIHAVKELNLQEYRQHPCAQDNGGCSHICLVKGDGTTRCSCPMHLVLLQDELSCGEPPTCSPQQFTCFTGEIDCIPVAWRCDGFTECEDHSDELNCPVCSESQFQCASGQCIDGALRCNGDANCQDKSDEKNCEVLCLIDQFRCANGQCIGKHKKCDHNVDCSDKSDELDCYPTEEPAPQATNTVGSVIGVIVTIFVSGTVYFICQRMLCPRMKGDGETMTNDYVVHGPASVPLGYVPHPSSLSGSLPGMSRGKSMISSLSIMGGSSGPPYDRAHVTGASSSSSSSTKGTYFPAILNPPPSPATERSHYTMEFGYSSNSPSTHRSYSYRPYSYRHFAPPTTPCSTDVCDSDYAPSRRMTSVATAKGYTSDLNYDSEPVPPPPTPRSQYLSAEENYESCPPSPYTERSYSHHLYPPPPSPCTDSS

In the case of anti-LRP6 inhibitory antibody YW210.09, the IC50, inhibition of Wnt1 signaling (luciferase reporter, HEK293S cells transfected by WNT1) in [1] was 28 nM.

For the substance G6 anti-VEGF antibody, the half-maximal inhibitory concentration (IC50) in experiment [2] worked out at 0.2 nM; in experiment [3] it was 0.25 nM. The Inhibitory activity (IC50, nM) against VEGF in cell-based assays in experiment [4] worked out at 0.19 nM; in [5], 0.078 nM; in [6] it was 0.21 nM; in experiment [7], 0.12 nM; in experiment [8], 0.13 nM. The substance further gave an Inhibitory Activity (IC50, nM) against hVEGF in cell-based assays in experiment [6] of 0.14 nM.

Substance Lucentis (Fab) gave an Inhibitory activity (IC50, nM) against VEGF in cell-based assays in [9] of 0.63 nM. This substance also came in with an Inhibitory Activity (IC50, nM) against hVEGF in cell-based assays in experiment [6] of 0.68 nM.
